Data taken from article doi:10.1101/2023.01.10.523378.
Values joined by “and” are separate entries in the source; they are usually repeats but may differ in a detail not shown here. Equal values may be shown once.

Tests used:
[1] = molecular target: rat CaMKIIα holoenzyme (apo, nonphosphorylated) (rat) (UniProt P11275); assay: high-speed atomic force microscopy
[2] = molecular target: rat CaMKIIα holoenzyme phosphorylated at Thr286 (rat) (UniProt P11275); assay: high-speed atomic force microscopy

**Q.** For “Ca2+/calmodulin (from UniProt P0DP23 1-149) (natural protein)”, which fraction of Ca2+/CaM bound longer than 60 s [1] is on record?
**A.** 41.1%

**Q.** What about the fraction of Ca2+/CaM bound longer than 60 s [2] of the same substance?
**A.** 77.3%

**Q.** Which stoichiometry N [1] does the source give for “rat CaMKIIα holoenzyme (apo, nonphosphorylated) (from UniProt P11275 1-478)” here?
**A.** 12 and 14
